Laboratory results taken from the nanobody polyreactivity screen of Harvey et al. (2022).

Experiment: yeast display, Sf9 membrane polyspecificity reagent, FACS + sequencing; frameworks hold sequencing errors
Outline: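 A nanobody's polyreactivity label depends on the gate it was sorted from. Yeast display cells were stained with 10% biotinylated, detergent-solubilized Sf9 membrane reagent for 1 hour at 4 °C, enriched on streptavidin microbeads and sorted by FACS. The low and high (top ~1%) gates were set on anti-HA fluorescence for expression and streptavidin fluorescence for reagent binding.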

Row | Sequence | polyreactivity (PSR sort gate)
1 | QVQLVESGGGLVQAGGSLRLSCAASGRTFVGNAMGWYRQAPGKERELVAAISGRGGSTKYADSVKGRFTISRDYAKNTVYLQMNSLKPEYTAVYYCNAPRNYYKNRAYEYWGQGTKVTVSS | high polyreactivity
2 | QVQLVESGGGLVQAGGSLRLSCAASGRTFVGYAMGWYRQAPGKERELVAAISRTGGSTYYADSVKGRFTISRDNAKNTVYLQMNSLKPEDTAVYYCAASPKRVLRESGDYWGQGTQVTVSS | high polyreactivity
3 | QVQLVESGGGLVQAGGSLRLSCAASGRTFVGYTMGWYRQAPGKERELVAAIDLSDGSTSYADSVKGRFTISRDNAKNTVYFQMNSLKPEDTAVYYCAKTWANVYAGAHDYWGQGTQVTVSS | low polyreactivity
4 | QVQLVESGGGLVQAGGSLRLSCAASGRTFVGYTMGWYRQAPGKERELVAAIDLSDGSTSYADSVKGRFTISRDNAKNTVYLQMNSLIPEDTAVYYCAKTWANVYAGAHDYWGLGTQVTVSS | low polyreactivity
5 | QVQLVESGGGLVQAGGSLRLSCAASGRTFVHYTMGWYRQAPGKERELVATISTSGGSTSYADSVKGRFTISRDNAKNTVYLQMNSLIPEDTAVYYCAARWYFPDRVKYDYWGQGTQVTVSS | low polyreactivity
6 | QVQLVESGGGLVQAGGSLRLSCAASGRTFVIYAMGWYRQAPGKEREFVAAISRSGGSTYYADSVKGRFTISRDNAKNTVYLQMNSLKPEDTAVYYCNTRTPYWVKSDYWGQGTQVTVSS | low polyreactivity
7 | QVQLVESGGGLVQAGGSLRLSCAASGRTFVIYAMGWYRQAPGKEREFVPAISKGGGSTYYADSVKGRFTISRDNAKNTVYLQMNSLKPEDTAVYYCAAGYGTYYQSSRFDYWGQGTQVTVSS | high polyreactivity
8 | QVQLVESGGGLVQAGGSLRLSCAASGRTFVLNAMGWYRQAPGKERELVAAITLGGGSTYADSVKGRLTISRDNAKNTVYLQMNSLKPEDTEVYYCNKASGVFYGHLDYWGQGTQVTVSS | low polyreactivity
9 | QVQLVESGGGLVQAGGSLRLSCAASGRTFVLYAMGWYRQAPGKERELVASITSGGSTNYADSVKGRFTISRDNAKNTVYLQMNSLKPEDTAVYYCNADLDVYLWFIFTVYQDDYDYWGQGTQVTVSS | high polyreactivity
10 | QVQLVESGGGLVQAGGSLRLSCAASGRTFVPYAMGWYRQAPGKERELVAAINSGGSTYYADSVKGRFTISRDNAKNTVYLQMNSLKPEDTAVYYCAAEYWNSRFSYAYGYWGQGTQVTVSS | high polyreactivity
11 | QVQLVESGGGLVQAGGSLRLSCAASGRTFVPYAMGWYRQAPGKERELVAAISYSGDSTYYADSVKGRFTISRDNAKNTVYLQMNSLKPEDTAVYYCAARGGNPFYYWGQGTQVTVSS | low polyreactivity
12 | QVQLVESGGGLVQAGGSLRLSCAASGRTFVRNAMGWYRQAPGKERELVAAINSGGSTNYADSLKGRFTISRDNPKNTVYLQMNSLKPEDTAVYYCNAPRQHVGNGNYWGQGTQVTVSS | low polyreactivity
13 | QVQLVESGGGLVQAGGSLRLSCAASGRTFVRYAMGWYRQAPGKERELVAAISTSGGNTYYADSVKGRFTISRDNAKNTVYLQMNSLKPEDTAVYYCAKDRGPNAKFDYWGQGTQVTVSS | low polyreactivity
14 | QVQLVESGGGLVQAGGSLRLSCAASGRTFVRYAMGWYRQAPGKERELVAAITSGGSTYADSVKGRFTISRDNAKNTVYLQMNSLKPEDTAVYYCAARRYPSYGSWGQGTQVTVSS | low polyreactivity
15 | QVQLVESGGGLVQAGGSLRLSCAASGRTFVRYAMGWYRQAPGKERELVARITSRGTSTYYADSVKGRFTISRDNAKNTVYLQMNSLKPEDTAVYYCNKVRTFRDKSRYDYWGQGTQVTVSS | low polyreactivity
16 | QVQLVESGGGLVQAGGSLRLSCAASGRTFVRYAMGWYRQAPGKERELVARITSSGGSTYYADSVKGRFTISRDNAKNTVYLQMNSLKPEDTAVYYCAKDTAFYRFQGHYGYWGQGTQVTVSS | high polyreactivity
17 | QVQLVESGGGLVQAGGSLRLSCAASGRTFVSYAMGWYRQAPGKERELVAAIRWGTGSRTYYADSVKGRFTISRDNAKNTVYLQMNSLKPEDTAVYYCAKTDWYPYGYWGQGTQVTVSS | low polyreactivity
18 | QVQLVESGGGLVQAGGSLRLSCAASGRTFVSYAMGWYRQAPGKERELVAAIRYRGGSTYYADSVKGRFTISRDNAMNTVYLQMNSLKPEDTAVYYCAANQGRYNIYSNYDYWGQGTQVTVSS | high polyreactivity
19 | QVQLVESGGGLVQAGGSLRLSCAASGRTFVTNTMGWYRQAPGKEREFVAAITWNGGGTYYADSVKGRFTISRDNAKNTVYLQMNSLKPEDTAVYYCAARGRTDSYWRFYHWGQGTQVTVSS | high polyreactivity
20 | QVQLVESGGGLVQAGGSLRLSCAASGRTFVTYAMGWYRQAPGKERELVAGISRRGGRTYYADSVKGRFTISRDNAKNTVYLQMNSLKPEDTAVYYCAAYDRITRYDYWGQGTQVTVSS | high polyreactivity
21 | QVQLVESGGGLVQAGGSLRLSCAASGRTFVTYGMGWYRQAPGKERQLVAAISKRGSRTYYADSVKGRFTISRDNAKNTVYLQMNSLKPEDTAVYYCNAETYRTTYDYWGQGTQVTVSS | high polyreactivity
22 | QVQLVESGGGLVQAGGSLRLSCAASGRTFVVNAMGGYRQAPGKERELVAAITYSGDTTYYADSVKGRFTISRDNAKNTVYLQMNSLKPEDTAVYYCAADTGVVSPPAGLLIGPFDSWGQGTQVTVSS | low polyreactivity

Row | Sequence | polyreactivity (PSR sort gate)
23 | QVQLVESGGGLVQAGGSLRLSCAASGRTFVWYAMGWYRHAPGKERELVAAISRSGGSTYYADSVKGRFTISRDNAKNTVYLQMNSLKPEDTAVYYCNAQWYVYDYYEFDYWGQGTQVTVSS | high polyreactivity
24 | QVQLVESGGGLVQAGGSLRLSCAASGRTFVWYDMGWYRQAPGKERELVAAITKRGTSTYYADSVKGRFTISRDNGKNTVYLQMNRLKPEDTAVYYCAVEYIYWFHSRSSYIYDYWGQGTQVTVSS | low polyreactivity
25 | QVQLVESGGGLVQAGGSLRLSCAASGRTFVYNAMGWYRQAPGKERELVAAISSDGASTYYADSVKGRFTISRDNAKNTVYLQMNSLKPEDTAVYYCAADFSYYSYEHYYWGQGTKVTVSS | low polyreactivity
26 | QVQLVESGGGLVQAGGSLRLSCAASGRTFVYNAMGWYRQAPGKERELVAAISSDGASTYYADSVKGRFTISRDNAKNTVYLQMNSLKPEDTAVYYCAADFSYYSYEHYYWVQGTQVTVSS | low polyreactivity
27 | QVQLVESGGGLVQAGGSLRLSCAASGRTFVYNAMGWYRQAPGKERELVAAITWNGGSTYYADSVKGRFTISRDNAKNTVYLQMNSLKPEDTAVYYCNRDVRYVGPSGFDYWGQGTQVTVSS | high polyreactivity
28 | QVQLVESGGGLVQAGGSLRLSCAASGRTFVYYAMGRYRQAPGKERELVAAISGSGGSTYYADSVKGRFTISRDNAKNTVYLQMISLKPEDTAVYYCAAGPRGRYRYGYWGQGTQVTVSS | high polyreactivity
29 | QVQLVESGGGLVQAGGSLRLSCAASGRTFVYYAMGWYRPAPGKERELVAAISRSGSTYYADSVKGRFTISRDNAKNTVYLQMNSLKPEDTAVYYCARPGGPDRTSSPYPYPYGYWGQGTQVTVSS | low polyreactivity
30 | QVQLVESGGGLVQAGGSLRLSCAASGRTFVYYAMGWYRQAPGKEREFVAAISRSGGHTSYADSVKGRFTISRDNAKNTVYLQMNSLKPEDTAVYYCAAEKRTQPTSREYYWGQGTQVTVSS | high polyreactivity
31 | QVQLVESGGGLVQAGGSLRLSCAASGRTFVYYAMGWYRQAPGKEREFVAAISRSGGRTSYADSVKGRFTISRDKAKNTVYLQMNSLKPEDTAVYYCAAKVRQWRQGSYSSQYDYWGQGTQVTVSS | high polyreactivity
32 | QVQLVESGGGLVQAGGSLRLSCAASGRTFVYYAMGWYRQAPGKERELVAAIRSGGSTNYADSVKGLFSISRDTAKNTVSLQMNSLKPEDTSVYYCNAVHYYYYKGDYWGQGTQVTVSS | high polyreactivity
33 | QVQLVESGGGLVQAGGSLRLSCAASGRTFVYYAMGWYRQAPGKERELVAAISSRGGSTYYADSVKGRFTISRDYAKNTVYLQMNSLKPEDTAVYYCAARARRRYYYWGQGTQVTVSA | high polyreactivity
34 | QVQLVESGGGLVQAGGSLRLSCAASGRTFVYYAMGWYRQAPGKERELVAAISTGGSTNYADSVKGRFTISRDNAKNTVYLQMNSLKPEDTAVYYCAAQYYISISKYDYWGQGTQVTVSS | low polyreactivity
35 | QVQLVESGGGLVQAGGSLRLSCAASGRTFVYYAMGWYRQAPGNERELVASISSGAGSPNYADSVKGRYTISRDNAKNTGYVQMNSLKPEDTAVYYCAVDTPRYRYYRTSYDYWRQGTQVTVSS | low polyreactivity
36 | QVQLVESGGGLVQAGGSLRLSCAASGRTFWANAMGWYRQAPGKERELVAAITIGGRTYYADSVKGRFTISRDNAKNTVYIQMNSLKPEDTAVYYCNAGSRRPFPAESGYWGQGTQVTVSS | low polyreactivity
37 | QVQLVESGGGLVQAGGSLRLSCAASGRTFWANAMGWYRQAPGKERELVAAITSGGSTNYADSVKGRFTISRDNAKNTVYLQMNSLKPEDTAVYYCAAAINRYRRTFNYWGQGTQVTVSS | high polyreactivity
38 | QVQLVESGGGLVQAGGSLRLSCAASGRTFWDYGMGWYRQAPGKERELVPTISGNGGDTYYADSVKGRFTISRDNAKNTVYLQMNSLKPEDTAVYFCAADYRFYRTDRHYDYWGQGTQVTVSS | low polyreactivity
39 | QVQLVESGGGLVQAGGSLRLSCAASGRTFWDYMGWYRQAPGKERELVATITSSGGSTYYADSVKGRFTISRDNAKNTVYLQMNSLKPEDTAVYYCNADWYLWSTFAQGYGYWGQGTQVTVSS | high polyreactivity
40 | QVQLVESGGGLVQAGGSLRLSCAASGRTFWFYSMAWYRQAPGKERELVATINYRGGTTYYADSVKGRFTISRDNAKNTVYLQMNSLKPEDTAVYYCAVRPTRTFIYDYWGQGTQVTVSS | high polyreactivity
41 | QVQLVESGGGLVQAGGSLRLSCAASGRTFWGYAMGWYRQAPGKERELVAAISLSGGRTNYADSVKGRFTISRDNAKNTVYLQMNSLKPEDTAVYYCAADKRPDGRMDYWGQGTQVTVSS | high polyreactivity
42 | QVQLVESGGGLVQAGGSLRLSCAASGRTFWGYAMGWYRQAPGKERELVATISSTGSTNYADSVKGRFTISRDNAKNPVYLQMNSLKPEDTAVYYCNAKRHLYRGWYQRYDYWGQGTQVTVSS | high polyreactivity
43 | QVQLVESGGGLVQAGGSLRLSCAASGRTFWKNTMGWYRQAPGKERELVAVISSGGVSTSYADSVKGRFTISRDNAKNTVYLQMNSLKPEDTAVYYCAADGYYIGPYDYWGQGTQVTVSS | low polyreactivity
